B1: TPR t1 (parent)
chain: GACCAAUCUGCCCUCAGAGCUCGAGAACAUCUUCGGAUGCAGAGGAGGCAGGCUUCGGUGGCGCGAUAGCGCCAACGUCCUCAACCUCCAAUGCAUCCCACCACAUGAUGAUGCCUGAAGAGCCUUGGUUUUUUG

Variants of: B1
Test: polymerase ribozyme fitness, log enrichment relative to wild type (log ratio); higher = more active; in vitro selection for triplet polymerase activity
In short: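 One round of in vitro selection, in triplicate, was applied to PCR-built, transcribed mutant libraries of each subunit of a heterodimeric triplet polymerase ribozyme. The steps were annealing with a biotinylated primer, partner subunit and triplets, incubation frozen at −7 °C, gel excision of extended constructs, streptavidin-bead capture and RT-PCR. Fitness is the logarithm, base 2, of genotype enrichment over wild-type enrichment from inverse-variance-weighted replicate averages of Illumina-sequenced inputs and outputs, keeping genotypes with ≥10 input reads and ≥1 read per output.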

Row | Variant | polymerase ribozyme fitness (log ratio)
1 | C79G G110A | -3.53
2 | C8G C73U | 0.902
3 | C72G A111G | 0.355
4 | A37U C49A U55C U112A | 0.525
5 | G113C U116G U130G | -5.3
6 | C12U C20A | -1.94
7 | U55C C79A | -2.08
8 | U9C C64A U67A C73U C85U G120C | -6.47
9 | C11G C13A A16U C79U | -2.88
10 | G47A A90G A103C G120C | -4.22
11 | C72A G77C U92C G122A | -3.67
12 | A6G A43G G57U C73U U81A | -3.53
13 | A5C C82U A84G U112A | -1.06
14 | A68C A105C U112G | -6.56
15 | A50G U130G | -0.32
16 | G57U C72G C94U G122A | -3
17 | G51A C86U C94G G120C | -6.29
18 | C11U C62A | -1.39
19 | U67A C73U C94A C104U G117U | -6.08
20 | C11A U33G | -6.86
21 | C8U G39U C49G G63C U78A G128A | -4.09
22 | G47C G77U C88A C97U G113C G117C | -6.98
23 | C3U C13U C70U G128U | -1.99
24 | C20A A121U | -0.837

Row | Variant | polymerase ribozyme fitness (log ratio)
25 | C40A G52A G58A C62U A119U U126A | -4
26 | G61A C82G A105C | -2.79
27 | C56G C70U C88U U106A U133A | -1.55
28 | C40G C62U | -1.8
29 | C72U G117U | -2.27
30 | A18G G36U C56G | -6.14
31 | C40U G47C U116G U132C | -4.13
32 | G65A G110A | -5.47
33 | A46U C62A A68G G110A | -5.73
34 | A43G A118G | -1.54
35 | C8G C34A C40U U55A G69U C79U C98U G107U A111U G117C | -6.38
36 | C34U G69A | -5.14
37 | C4U U7A G69A | -2.49
38 | A50U G52C G58C C73U C88U | -4.53
39 | C40U C97A | -5.23
40 | G39U A41C C94U C124A | 0.616
41 | G10U C40U G52U C64U | -1.92
42 | G57U G60C U96G | -2.78
43 | A2U A100U | -3.18
44 | C28A A74C G117U | -7.34
45 | G61U A74G G93U G117U | -5.63
46 | A24G A75U | -2.53
47 | U21G A37G G61A G135U | -2.33
48 | G117A G135U | -1.92

Row | Variant | polymerase ribozyme fitness (log ratio)
49 | C28U G36A G48A | -3.89
50 | A50G C76U | -0.383
51 | C80A G120C | -2.2
52 | C13G C82A A84G C123A | -0.276
53 | C20U C34G | -6.47
54 | U67C C114U | -6.64
55 | G69U C114U U130G | -1.33
56 | G42C G44A G69C C94U C114A | -5.06
57 | C72G A105G | -1.94
58 | C11A C82A | -2.13
59 | A5G C8G G52C C79U | 0.0143
60 | C72A U87G | 0.194
61 | A90G | 0.347
62 | C62U A74U U78C G120A | -0.246
63 | A66C C85G U106A | -2.61
64 | A83G C85A | -2.68
65 | C4A C73U | -1.49
66 | C4U C20A A111G | -4.75
67 | G42U C88U G113U A121U U131G | -1.8
68 | G61A G128A | -1.69
69 | G48A A84C C86U U87G G117A G128U | -6.08
70 | A16G U109C | -5.19
71 | A16U C53A A66C | -2.72
72 | G69U U109A | -2.79

Row | Variant | polymerase ribozyme fitness (log ratio)
73 | C12U A27U C40A U78G U109A C123U U130C | -3.99
74 | C8U U106A G127U | 0.137
75 | G51U C72A U130G | -3.04
76 | G48C U131A | -1.82
77 | C8A C12U C86G C104A | -1.31
78 | G36A G47C C124U | -0.979
79 | C88U C114U | -1.17
80 | C8U G48U A50U C86U U96A | -0.998
81 | G60U A95G C115G | -2.25
82 | C8U C62A C114G U126A | -3.89
83 | G19U C53G A91G | -3.77
84 | A2G A29G G120A C123G | -0.383
85 | A18C C124G G128U | -3.83
86 | A16C G45U | -4.66
87 | G25A G47A A100G U112G C123U | -6.98
88 | C64U C114G C115A C123G C124A | -4.37
89 | C11U C15G U59C U112A | -4.15
90 | G47C C49G U55G C73G C97A A119G | -5.16
91 | C56A G63U | -4.97
92 | C8G C76U G135A | -0.923
93 | A18U U112C G128A | -2.38
94 | C11G G113U | -2.12
95 | C3A G57A U92C | -5.31
96 | C4G U78C U112G | -1.83

Row | Variant | polymerase ribozyme fitness (log ratio)
97 | C3U C13U G63A | -1.19
98 | G36U G60A | -1.61
99 | G113C U116A | -4.45
100 | G45U C53A G69A C89A C104U C124A G135A | -6.34
101 | C40A C70U G113A | -2.79
102 | U21A A29C G48A | -3.86
103 | A68U G69C A121C | -3.61
104 | C8U U78A | 0.175
105 | G113U G120C G128U | -4.07
106 | C12U U96G | -0.215
107 | A16U C82G U87A | -3.81
108 | C49G U112G | 0.00648
109 | C94U U130G | -1.07
110 | C11G G77A U92A U129C | -4.39
111 | C28G C89A | -4.51
112 | U78C C86G | -0.656
113 | A2G U9G C56U C88A | -1.54
114 | C56U C114G U131A | -2.06
115 | G25A G44U G52U C62U A105G U112A | -7.09
116 | C11U C40G C82U A100U | -4.42
117 | G47U G48A A121U | 1.01
118 | A26G G48A C49G C73U A121U | -0.344
119 | G36C C53U U55G G113C G120C | -2.92
120 | G44C C88G G117A C123G | -2.7

Row | Variant | polymerase ribozyme fitness (log ratio)
121 | G19A C70G G113U | -5.75
122 | U55A G77C C104A | -1.93
123 | A16C C101A G120A | -3.59
124 | C13G A37G C53G G110U G113A | -5
125 | G10A C22G G61A G71C A111U G117A | -7.23
126 | G93A C101U A118G | -0.63
127 | C64A C94A | -6.34
128 | C8U A50U G117C | -3.99
129 | C72U U130G | -0.892
130 | A27G G61A | -1.92
131 | A26U G60C C86G | -4.99
132 | C64G C124U | -5.45
133 | A29G | -0.987
134 | G47A U106A U133A | -1.13
135 | A43C C53A C56A C72A | -2.36
136 | G63U C64U | -6.21
137 | C3U C13A G39U C53A C56U G120U | -0.266
138 | G69U C73U | 0.225
139 | C70U U96C C99U C102U | -6.59
140 | C12U A43U G77A C85U U112A | -0.51
141 | G10A G17C C34A G47U C72G C80U C124A | -7.1
142 | G63C C98G U116A C124G | -5.39
143 | C4U U32A G47A U112G | -5.29
144 | C40U G60U C94A C101G U106A | -1.22

Row | Variant | polymerase ribozyme fitness (log ratio)
145 | C3A C62G | -2.38
146 | C70U U133G | -1.12
147 | G10A A74C U78A A111G | -0.232
148 | G42A G48A C80A U96A | -6.92
149 | C12G A26U G45U U106A G127U | -4.14
150 | C3U C56G C79A C124G | -0.114
151 | C15U G52A C62U A74U A83U U132A | -3.97
152 | C3A C89U U96G C124A | 0.0977
153 | A83U C98A C123A U125A | -4.08
154 | C20U G60C C99U | -4.59
155 | G71U G93A | -0.562
156 | A6U G10C C34A U81A U112C G120C | -3.64
157 | U32C G47A | -1.18
158 | G48U C62G C104A U106C | -5.05
159 | C40G C56A C79G C101U G110A | -6.02
160 | C53A G110A | -0.6
161 | C13G C82G C102A | -4.14
162 | A5C C86U | -0.23
163 | C8G G42U G60C U81A U129G | -6.22
164 | C4U C82U | -0.905
165 | G51C G52A U81C | -5.02
166 | A24G G47A G77U C86U | -2.29
167 | C28G C64U U81A G93U C101U U112G | -5.16
